Experimental data taken from PMC6707876 (Nature microbiology, 2019).

Tests used:
[1] = target: T1, biotinylated BirA-tagged Sal-1 DBP-II (Plasmodium vivax, UniProt P22290, biotin (added with BirA ligase on the BirA tag)); assay: BLI
[2] = target: T1, biotinylated BirA-tagged Sal-1 DBP-II; assay: flow cytometry on cells

T1 sequence (P22290 211-525): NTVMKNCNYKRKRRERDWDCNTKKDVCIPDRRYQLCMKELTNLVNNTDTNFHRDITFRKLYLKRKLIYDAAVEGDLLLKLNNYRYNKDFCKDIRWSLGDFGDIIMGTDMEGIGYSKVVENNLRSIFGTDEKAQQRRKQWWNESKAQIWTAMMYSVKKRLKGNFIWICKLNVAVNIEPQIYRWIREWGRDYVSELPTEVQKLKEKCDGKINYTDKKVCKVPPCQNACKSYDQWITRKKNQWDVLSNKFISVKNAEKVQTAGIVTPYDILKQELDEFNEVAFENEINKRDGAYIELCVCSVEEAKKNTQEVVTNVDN

B1: 053054 single-chain variable fragment (scFv, V domains shown)
VH: QVQLQESGPGLVKPSQTLSLTCNVSGDSINSGDYYWIWIRQPPGKGLEWIGNIYYSGTAYYNPSLKTRLIISIDTSTNQFSLKVTSVTAADTAIYYCARASTTVVSPWLDPWGQGTLVTVSS
VL: SYELTQPSSVAVAPGQTARIPCGGDNIESKGVHWYQQKPGQAPVLVVYDDHDRPSGIPERFSGSNSGNTATLTVSRVEAGDEADYYCQVWDTSSEHPVFGGGTKLTVL
Kd [1]: 7.44 ± 0.36 nM

B2: human monoclonal antibody 053054 (full-length IgG1) (antibody, V domains shown)
VH: QVQLQESGPGLVKPSQTLSLTCNVSGDSINSGDYYWIWIRQPPGKGLEWIGNIYYSGTAYYNPSLKTRLIISIDTSTNQFSLKVTSVTAADTAIYYCARASTTVVSPWLDPWGQGTLVTVSS
VL: SYELTQPSSVAVAPGQTARIPCGGDNIESKGVHWYQQKPGQAPVLVVYDDHDRPSGIPERFSGSNSGNTATLTVSRVEAGDEADYYCQVWDTSSEHPVFGGGTKLTVL
IC50 [2]: 4.88 ± 1.06 nM

B3: 092096 single-chain variable fragment (scFv, V domains shown)
VH: QVQLVQSGAEVKKPGASVKVSCKVSGYTLTELSMHWVRQAPGKGLEWMGGFDREDGESIYAQKFQGRVTLTEDTSTDSVYMELSNLRSDDTAVYFCATDFGGSYFYAFDIWGQGTMVTVSS
VL: not shown
Kd [1]: 7.63 ± 0.29 nM

B4: human monoclonal antibody 092096 (full-length IgG1) (antibody, V domains shown)
VH: QVQLVQSGAEVKKPGASVKVSCKVSGYTLTELSMHWVRQAPGKGLEWMGGFDREDGESIYAQKFQGRVTLTEDTSTDSVYMELSNLRSDDTAVYFCATDFGGSYFYAFDIWGQGTMVTVSS
VL: not shown
IC50 [2]: 1.63 ± 1.07 nM
